Reference: patent publication US8211649B2, “Methods of diagnosing and prognosing hodgkin's lymphoma” (Human Genome Sciences, Inc., priority 2006, dated 2012)
Like-named read-outs stand apart in the source and are kept apart here. One block for each molecule: values may come before it.

Key:
[1] = system: Neutrokine-alpha expression on monocytes; experiment: FACS of Neutrokine-alpha cell surface expression with mAb 2E5; assay type: cell-based, human; details: IFN-gamma 100 U/mL for three days
Procedure: The expression profile of Neutrokine-alpha was assessed by Northern blot (FIG. 7B) and flow cytometric analyses (Table V and FIGS. 8A, 8B and 8C). Neutrokine-alpha is encoded by a single 2.6 kb mRNA found at high levels in peripheral blood leukocytes, spleen, lymph node and bone marrow. Lower expression levels were detected in placenta, heart, lung, fetal liver, thymus and pancreas. Among a panel of cell lines, Neutrokine-alpha mRNA was detected in HL-60 and […], but not in Raji, HeLa, or MOLT-4 cells. […] A concomitant increase in Neutrokine-alpha-specific mRNA was also detected (FIG. 8C). By contrast, Neutrokine-alpha was not expressed on freshly isolated peripheral blood granulocytes, T cells, B cells, or NK cells.
(§1) FACS analysis. Neutrokine-alpha expression was assessed on human cell lines, freshly isolated normal peripheral blood nucleated cells, and in vitro cultured monocytes, a mouse anti-human Neutrokine-alpha mAb 2E5 (IgG1) followed by PE-conjugated F(ab′)2 goat antibody to mouse IgG (CALTAG Laboratories, Burlingame, Calif.). Cells were analyzed using a FACScan (Becton Dickinson Immunocytometry Systems, San Jose, Calif.) with propidium iodide to exclude dead cells. Neutrokine-alpha binding was assessed using rNeutrokine-alpha biotinylated with a N-hydroxysuccinimidobiotin reagent (Pierce, Rockford, Ill.) followed by PE-conjugated streptavidin (Dako Corp, Glostrup, Denmark).

[2] = system: Neutrokine-alpha expression in monocytes and macrophages; experiment: cytokine effect on Neutrokine-alpha expression and release in monocytes and macrophages; assay type: cell-based; details: single cytokine, in vitro
HIV = details: greater activity; cited from earlier work
Neutrokine-alpha protein [3] = target: T1, Neutrokine-alpha protein (Homo sapiens, UniProt Q9Y275)
Procedure: A Phase 2, multi-center, randomized, double-blind, placebo-controlled study was performed in subjects with RA. Subjects were randomized into 4 treatment groups (placebo, 1 mg/kg, 4 mg/kg and 10 mg/kg).
An ACR20 response is defined as at least a 20% reduction in tender joint count and swollen joint count, in addition to an improvement of at least 20% on three of five other assessments of symptoms or disease manifestations (i.e., patient pain assessment, patient global assessment, physician global assessment, patient self-assessed disability, acute-phase reactant [ESR or CRP]).

Neutrokine-alpha protein [4] = target: T1, Neutrokine-alpha protein; remark: listed apart in the source
Procedure: 449 subjects with SLE by ACR criteria (Tan et al., Arthritis Rheum. 25:1271-7, (1982); and Hochberg et al., Arthritis Rheum. 40:1725, (1997)) and SELENA SLEDAI score ≧4 at screening were dosed.

human tonsillar B cells = experiment: B lymphocyte co-stimulatory proliferation assay (3H-thymidine); assay type: cell-based; details: after biotinylation
Procedure: Purified recombinant Neutrokine-alpha (“rNeutrokine-alpha”) was assessed for its ability to induce activation, proliferation, differentiation or death in numerous cell based assays involving B cells, T cells, monocytes, NK cells, hematopoietic progenitors, and a variety of cell types of endothelial and epithelial origin. […] A dose-dependent response is readily observed as the amount of crosslinking agent increases in the presence of a fixed concentration of either 1L2 or rNeutrokine-alpha.
B lymphocyte proliferation assay. […] The resulting cell population was routinely greater than 95% B cells as assessed by expression of CD19 and CD20. […] Proliferation was quantitated by a 20 h pulse (1 microCi/well) of ^3H-thymidine (6.7 Ci/mM) beginning 72 h post factor addition.
In Vitro assay—Purified Neutrokine-alpha and/or Neutrokine-alphaSV protein, or truncated forms thereof, is assessed for its ability to induce activation, proliferation, differentiation or inhibition and/or death in B-cell populations and their precursors. […] Novel synergizing agents can be readily identified using this assay. […] The resulting cell population is greater than 95% B cells as assessed by expression of CD45R(B220). […] Proliferation or inhibition is quantitated by a 20 h pulse (1 uCi/well) with ^3H-thymidine (6.7 Ci/mM) beginning 72 h post factor addition. […]

[5] = system: Neutrokine-alpha receptor; experiment: FACS binding of biotinylated Neutrokine-alpha to blood cells and cell lines; set-up: species or system human
Description: In an attempt to correlate the specific biological activity on B cells with receptor expression, purified Neutrokine-alpha was biotinylated. […] In contrast, biotinylated Neutrokine-alpha bound peripheral CD20^+ B cells. Receptor expression was also detected on the B cell tumor lines REH, ARH-77, Raji, Namalwa, RPMI 8226, and IM-9 but not any of the myeloid-derived lines tested including THP-1, HL-60, K-562, and U-937. Similar results were also obtained using a biologically active FLAG-tagged Neutrokine-alpha protein instead of the chemically modified biotin-Neutrokine-alpha. […] It remains to be shown whether cellular activation may induce expression of Neutrokine-alpha receptors on peripheral blood cells, other normal cell types or established cell lines.
as §1

[6] = set-up: species or system BALB/c mice; details: mouse
Procedure: Neutrokine-alpha was radiolabeled with ^125I and injected intravenously into BALB/c mice. Three doses and 4 timepoints over a 24-hr period were studied. Biodistribution was measured by direct counting of the radioactivity in dissected whole organs or tissues and by whole body quantitative autoradiography (QAR).

B cells = experiment: Neutrokine-alpha mediated B cell proliferation, enhancement by cytokines; assay type: cell-based; details: observed by the inventors
[7] = week 52, all treatment groups combined, reduction

Molecule: IFN-gamma: cytokine
- upregulation of Neutrokine-alpha expression on resting monocytes [1]: approximately 4 fold
- cell surface expression of Neutrokine-alpha in monocytes and macrophages [2]: enhance

Molecule: CC[C@H]1C(=O)Nc2ccc(F)cc2N1C(=O)OC(C)C [GW-420867X]
- activity relative to HBY097 (HIV): 25 fold

Molecule: Nc1nc(=O)n([C@@H]2CS[C@H](CO)O2)cc1F [COVIRACIL, emtricitabine]
- activity in vitro relative to lamivudine (3TC) (HIV): 3- to 10 fold

- ACR20 response versus placebo (Neutrokine-alpha protein [3]; 1 mg/kg treatment group, 24 weeks (p=0.0097)): statistically superior
- ACR20 response (Neutrokine-alpha protein [3]; Week 48, extension period): approximately 40%
- ACR20 response versus placebo (Neutrokine-alpha protein [3]; all active treatment groups combined, 24 weeks (p=0.0213)): statistically superior
- CD20+ B-cells, naïve B-cells, activated B-cells and RF (Neutrokine-alpha protein [3]; biological activity): statistically significant reductions
- decrease of serum IgG (Neutrokine-alpha protein [4]; belimumab-treated arms): 10%
- PGA (Neutrokine-alpha protein [4]; by week 16 through week 52, all active vs. placebo): improved
- plasma and memory cell populations (Neutrokine-alpha protein [4]; in vivo): preserved
- primary efficacy endpoints (percent reduction in SS score at week 24, time to flare over 52 weeks) (Neutrokine-alpha protein [4]; in vivo): did not reach statistical significance
- increase of C4 (Neutrokine-alpha protein [4]; low baseline C4, belimumab-treated arms): 33%
- anti-dsDNA+ subjects converted to negative (Neutrokine-alpha protein [4]; week 52): 14.5%
- SS score (Neutrokine-alpha protein [4]; week 52, ANA+ subjects): significantly reduced
- median percent change in CD20+ B cells (Neutrokine-alpha protein [4]; [7]): 54%
- median percent change in plasmacytoid B cells (CD20+/CD138+) (Neutrokine-alpha protein [4]; [7]): 62%
- reduction of anti-dsDNA Ab (Neutrokine-alpha protein [4]; week 52, baseline positive): 30%
- median percent change in activated B-cells (CD20+/CD69+ B cells) (Neutrokine-alpha protein [4]; week 52, reduction): 70%
- SLE flares (Neutrokine-alpha protein [4]; weeks 24-52 using a 24 week baseline): decreased
Molecule: belimumab: an antibody that neutralizes Neutrokine-alpha protein
- safety, including adverse events, AE severity, infections or lab toxicity vs. placebo (Neutrokine-alpha protein [4]; in vivo): No clinically significant differences
- severe infusion reaction events (Neutrokine-alpha protein [4]; in vivo): 1
- subjects with pleurisy (Neutrokine-alpha protein [4]; in vivo): 3.3%

Molecule: C[C@H](Sc1nc(N)cc(Cl)n1)c1cc2ccoc2cn1 [PNU-142721]
- activity relative to delavirdine (HIV): 20- to 50 fold

Molecule: biotinylated Neutrokine-alpha: purified Neutrokine-alpha biotinylated with N-hydroxysuccinimidobiotin reagent
- biological function in the standard B cell proliferation assays (human tonsillar B cells): retained biological function
- receptor expression (binding of biotinylated Neutrokine-alpha) ([5]; B cell tumor lines REH, ARH-77, Raji, Namalwa, RPMI 8226, IM-9): detected
- binding of biotinylated Neutrokine-alpha ([5]; T cells, monocytes, NK cells and granulocytes of human peripheral blood): undetectable
- receptor expression (binding of biotinylated Neutrokine-alpha) ([5]; myeloid-derived lines THP-1, HL-60, K-562, U-937): not any
- binding of biotinylated Neutrokine-alpha ([5]; peripheral CD20+ B cells): bound

Molecule: radiolabeled Neutrokine-alpha: Neutrokine-alpha (amino acids 134-285 of SEQ ID NO:2) radiolabeled with 125I
- in vivo targeting specificity [6]: high in vivo targeting specificity for lymphoid tissues
- QAR signal in liver and kidney ([6]; in vivo): no longer had observable levels
- QAR signal in spleen, lymph nodes and GALT ([6]; in vivo): still strongly positive
- concentration of radioactivity in kidney ([6]; in vivo, iv, 0.01 mg/kg, 3 h): ~5 % injected dose (ID)/g
- concentration of radioactivity in liver ([6]; in vivo, iv, 0.01 mg/kg, 3 h): ~5 % injected dose (ID)/g
- concentration of radioactivity in lymph node ([6]; in vivo, iv, 0.01 mg/kg, 3 h): 23 % injected dose (ID)/g
- concentration of radioactivity in spleen ([6]; in vivo, iv, 0.01 mg/kg, 3 h): 63 % injected dose (ID)/g

B1: IL-4: cytokine (protein, UniProt P05112 25-153, looked up)
Interleukin-4: HKCDITLQEIIKTLNSLTEQKTLCTELTVTDIFAASKNTTEKETFCRAATVLRQFYSHHEKDTRCLGATAQQFHRHKQLIRFLKRLDRNLWGLAGLNSCPVKEANQSTLENFLERLKTIMREKYSKCSS
- cell surface expression of Neutrokine-alpha in monocytes and macrophages [2]: decreased
- effect on Neutrokine-alpha mediated B cell proliferation (B cells): enhance

B2: IL-10: cytokine (protein, UniProt P22301 19-178, looked up)
Interleukin-10: SPGQGTQSENSCTHFPGNLPNMLRDLRDAFSRVKTFFQMKDQLDNLLLKESLLEDFKGYLGCQALSEMIQFYLEEVMPQAENQDPDIKAHVNSLGENLKTLRLRLRRCHRFLPCENKSKAVEQVKNAFNKLQEKGIYKAMSEFDIFINYIEAYMTMKIRN
- cell surface expression of Neutrokine-alpha in monocytes and macrophages [2]: enhance
- effect on Neutrokine-alpha mediated B cell proliferation (B cells): enhance
